Experimental data reported in publication PMC2174279.
Blank lines part the entries; values can stand above or below the binder they belong to.

Columns and labels:
[1] = target: Bee1p-HA (S. cerevisiae); experiment: co-IP
[2] = target: Bee1p (1-633) (S. cerevisiae); experiment: two-hybrid
[3] = target: Bee1p (1-165) (S. cerevisiae); experiment: two-hybrid

percent coimmunoprecipitated [1]: 5%
B1: Vrp1p-Myc (natural protein)
chain: MAGAPAPPPPPPPPALGGSAPKPAKSVMQGRDALLGDIRKGMKLKKAETNDRSAPIVGGGVVSSASGSSGTVSSKGPSMSAPPIPGMGAPQLGDILAGGIPKLKHINNNASTKPSPSASAPPIPGAVPSVAAPPIPNAPLSPAPAVPSIPSSSAPPIPDIPSSAAPPIPIVPSSPAPPLPLSGASAPKVPQNRPHMPSVRPAHRSHQRKSSNISLPSVSAPPLPSASLPTHVSNPPQAPPPPPTPTIGLDSKNIKPTDNAVSPPSSEVPAGGLPFLAEINARRSERGAVEGVSSTKIQTENHKSPSQPPLPSSAPPIPTSHAPPLPPTAPPPPSLPNVTSAPKKATSAPAPPPPPLPAAMSSASTNSVKATPVPPTLAPPLPNTTSVPPNKASSMPAPPPPPPPPPGAFSTSSALSASSIPLAPLPPPPPPSVATSVPSAPPPPPTLTTNKPSASSKQSKISSSSSSSAVTPGGPLPFLAEIQKKRDDRFVVGGDTGYTTQDKQEDVIGSSKDDNVRPSPISPSINPPKQSSQNGMSFLDEIESKLHKQTSSNAFNAPPPHTDAMAPPLPPSAPPPPITSLPTPTASGDDHTNDKSETVLGMKKAKAPALPGHVPPPPVPPVLSDDSKNNVPAASLLHDVLPSSNLEKPPSPPVAAAPPLPTFSAPSLPQQSVSTSIPSPPPVAPTLSVRTETESISKNPTKSPPPPPSPSTMDTGTSNSPSKNLKQRLFSTGGSTLQHKHNTHTNQPDVDVGRYTIGGSNSIVGAKSGNERIVIDDSRFKWTNVSQMPKPRPFQNKTKLYPSGKGSSVPLDLTLFT

LacZ expression (two-hybrid) [2]: 398 Miller units
B2: Myo5p-SH3-AD (1020-1219) (domain or fragment)
chain: NKAATRRSVPNPASTLTASQSNARPSPPTAATRATPAATPAAAAMGSGRQANIPPPPPPPPPSSKPKEPMFEAAYDFPGSGSPSELPLKKGDVIYITREEPSGWSLGKLLDGSKEGWVPTAYMKPHSGNNNIPTPPQNRDVPKPVLNSVQHDNTSANVIPAAAQASLGDGLANALAARANKMRLESDDEEANEDEEEDDW

LacZ expression (two-hybrid) [2]: 144 Miller units
LacZ expression (two-hybrid) [3]: 144 Miller units
B3: Vrp1p (195-817) (domain or fragment)
chain: HMPSVRPAHRSHQRKSSNISLPSVSAPPLPSASLPTHVSNPPQAPPPPPTPTIGLDSKNIKPTDNAVSPPSSEVPAGGLPFLAEINARRSERGAVEGVSSTKIQTENHKSPSQPPLPSSAPPIPTSHAPPLPPTAPPPPSLPNVTSAPKKATSAPAPPPPPLPAAMSSASTNSVKATPVPPTLAPPLPNTTSVPPNKASSMPAPPPPPPPPPGAFSTSSALSASSIPLAPLPPPPPPSVATSVPSAPPPPPTLTTNKPSASSKQSKISSSSSSSAVTPGGPLPFLAEIQKKRDDRFVVGGDTGYTTQDKQEDVIGSSKDDNVRPSPISPSINPPKQSSQNGMSFLDEIESKLHKQTSSNAFNAPPPHTDAMAPPLPPSAPPPPITSLPTPTASGDDHTNDKSETVLGMKKAKAPALPGHVPPPPVPPVLSDDSKNNVPAASLLHDVLPSSNLEKPPSPPVAAAPPLPTFSAPSLPQQSVSTSIPSPPPVAPTLSVRTETESISKNPTKSPPPPPSPSTMDTGTSNSPSKNLKQRLFSTGGSTLQHKHNTHTNQPDVDVGRYTIGGSNSIVGAKSGNERIVIDDSRFKWTNVSQMPKPRPFQNKTKLYPSGKGSSVPLDLTLFT
